According to US20230192817A1 (ZHUHAI TRINOMAB PHARMACEUTICAL, published 2023):

Key:
[1] = target: T1, VZV gH/gL protein complex (CAMBRIDGEBIO, Cat No: 01-11-0045) (Varicella-Zoster Virus, UniProt P09260 18-802; P09308 22-159); assay: SPR (Biacore), antibody captured on anti-human IgG (Fc) CM5 chip, gH/gL complex as analyte
T1 construct: also called gHgL-Cambridge
T1 sequence 1: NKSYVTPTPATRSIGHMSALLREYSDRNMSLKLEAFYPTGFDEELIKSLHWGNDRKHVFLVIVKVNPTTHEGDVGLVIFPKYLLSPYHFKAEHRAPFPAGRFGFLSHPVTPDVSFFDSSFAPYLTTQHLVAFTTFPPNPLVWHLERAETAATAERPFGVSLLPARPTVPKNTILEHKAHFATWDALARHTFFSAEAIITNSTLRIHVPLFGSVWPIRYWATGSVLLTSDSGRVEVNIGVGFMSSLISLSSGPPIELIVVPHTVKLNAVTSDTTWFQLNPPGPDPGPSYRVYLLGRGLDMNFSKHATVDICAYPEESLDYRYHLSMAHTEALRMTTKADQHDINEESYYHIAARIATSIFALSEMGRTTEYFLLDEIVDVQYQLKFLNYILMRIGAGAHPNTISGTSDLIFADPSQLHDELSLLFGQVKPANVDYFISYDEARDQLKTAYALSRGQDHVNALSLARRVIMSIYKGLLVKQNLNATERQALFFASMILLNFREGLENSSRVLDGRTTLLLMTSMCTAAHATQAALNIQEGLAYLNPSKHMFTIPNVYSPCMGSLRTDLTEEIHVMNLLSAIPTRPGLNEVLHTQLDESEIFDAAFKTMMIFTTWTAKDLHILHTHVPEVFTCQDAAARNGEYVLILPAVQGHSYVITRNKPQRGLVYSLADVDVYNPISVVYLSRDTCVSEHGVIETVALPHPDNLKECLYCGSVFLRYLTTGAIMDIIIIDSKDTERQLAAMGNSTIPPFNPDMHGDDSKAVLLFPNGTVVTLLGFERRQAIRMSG
T1 sequence 2: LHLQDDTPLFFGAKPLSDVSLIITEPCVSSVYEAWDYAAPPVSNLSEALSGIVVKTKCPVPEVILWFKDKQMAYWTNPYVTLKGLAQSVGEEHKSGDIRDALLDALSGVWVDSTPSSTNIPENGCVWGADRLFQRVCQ

[2] = target: T1, VZV gH/gL protein complex …; assay: ELISA, plate coated with 100 ng/well VZV gH/gL complex, detection Goat-Anti-IgG-Fab-HRP
[3] = target: T1, VZV gH/gL protein complex …; assay: ELISA, culture supernatant

B1: fully human VZV monoclonal antibody TRN1025 (antibody, V domains shown)
VH: QVQLVQSGGGLVQPGGSLRLSCVASGFTFSSYAMTWVRQAPGKGLEWVSTISGSGGSTFYADSVRGRFTISRDNSKNALYLQMNSLRAEDTAVYYCAKDRSYGGNQPFDYWGQGTLVTVSS
VL: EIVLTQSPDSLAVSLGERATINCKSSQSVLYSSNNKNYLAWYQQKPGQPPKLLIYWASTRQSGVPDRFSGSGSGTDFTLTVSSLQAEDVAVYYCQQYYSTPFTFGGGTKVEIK
In the case of B1, the Kd [1] is reported as 13.4 nM, the koff [1] is reported as 0.000416 s⁻¹ and the kon [1] is reported as 31100 M⁻¹ s⁻¹. The “EC50 (read off the curve)” value [2] was about 0.5 µg/mL.

B2: fully human VZV monoclonal antibody TRN1026 (antibody, V domains shown)
VH: QVQLVQSGAEVKKPGSSVKVSCKASGRTFSSYAYSWVRQAPGQGLEWMGRVIPVLGITNYAPKFQGKVTITVDKVTSTAFLELTGLKSDDTAVYYCARVSDDVLTGALDYWGQGTLVTVSS
VL: QSVLTQPPSVSGSPGQSVTISCTGTRSDVGSHNRVAWFQQSPGTAPKLMIYEVTNRPSGVPDRFSGSKSGNTASLTISGLQAEDEADYYCSSYTSTSTWVFGGGTKLTVL
Work on B2 yielded a Kd [1] of 2.66 nM, a koff [1] of 0.000274 s⁻¹ and a kon [1] of 103000 M⁻¹ s⁻¹.

B3: antibody variant derived from antibody TRN1026 (antibody, V domains shown)
VH: QVQLVQSGAEVKKPGSSVKVSCKASGRTFSSYAYSWVRQAPGQGLEWMGRVIPVLGITNYAPKFQDKVTITADKVTSTAFLELTGLKSDDTAVYYCARVSDDVLTGALDYWGQGTLVTVSS
VL: QSVLTQPPSVSGSPGQSVTISFTGTRSDVGSHNRVAWFQQSPGTAPKLMIYEVTNRPSGVPDRFSGSKSGNTASLTISGLQAEDEADYYCSSYTSTSTWVFGGGTKLTVL
notes: also called Antibody derived from TRN1026
With B3 the EC50 [3] was 0.05 µg/mL.

B4: fully human VZV monoclonal antibody TRN1024 (antibody, V domains shown)
VH: QVQLVQSGGGLVQPGGSLRLSCEASGFTFSSYWMSWVRQAPGKGLEWVANIKQDGSEKYYVDSVKGRFSISRDNAKNSLYLQMNSLRVEDTAVYYCAREGGGQGKWRLEYGMDVWGQGTTVIVSS
VL: not shown
B4 was tested, and the Kd [1] was 36.7 nM, the koff [1] was 0.000621 s⁻¹ and the kon [1] was 16900 M⁻¹ s⁻¹. For the same binder, the “EC50 (read off the curve)” value [2] was about 0.6 µg/mL.
